B1: human Semaphorin-5A TSR3-4, Sema5A_(TSR3-4) (residues 652P-765T) (domain or fragment, UniProt Q13591 652-765, looked up)
chain: PHMFWTGWGPWERCTAQCGGGIQARRRICENGPDCAGCNVEYQSCNTNPCPELKKTTPWTPWTPVNISDNGGHYEQRFRYTCKARLADPNLLEVGRQRIEMRYCSSDGTSGCST
modifications: C-mannosyl tryptophan at W656 and W659; N-glycans reduced to single residues by EndoF1 (crystals)
notes: Semaphorin-5A, human, UniProtKB Q13591, residues 652P-765T (thrombospondin type-1 repeats 3 and 4); The tag was cleaved by HRV 3C protease for crystallization; Inter-protomer disulfides C689-C689' and C733-C733'; source: HEK293T, transfected (with kifunensine for crystallization), purified (Ni-NTA, 3C cleavage, SEC); not shown: 3C-Avi-His6, C-terminal, cleaved
B2: human Semaphorin-5A ectodomain Sema5A_(sema-TSR1-7) (residues 23E-944S) (domain or fragment, UniProt Q13591 23-944, looked up)
chain: EAQGTTQCQRTEHPVISYKEIGPWLREFRAKNAVDFSQLTFDPGQKELVVGARNYLFRLQLEDLSLIQAVEWECDEATKKACYSKGKSKEECQNYIRVLLVGGDRLFTCGTNAFTPVCTNRSLSNLTEIHDQISGMARCPYSPQHNSTALLTAGGELYAATAMDFPGRDPAIYRSLGILPPLRTAQYNSKWLNEPNFVSSYDIGNFTYFFFRENAVEHDCGKTVFSRAARVCKNDIGGRFLLEDTWTTFMKARLNCSRPGEVPFYYNELQSTFFLPELDLIYGIFTTNVNSIAASAVCVFNLSAIAQAFSGPFKYQENSRSAWLPYPNPNPHFQCGTVDQGLYVNLTERNLQDAQKFILMHEVVQPVTTVPSFMEDNSRFSHVAVDVVQGREALVHIIYLATDYGTIKKVRVPLNQTSSSCLLEEIELFPERRREPIRSLQILHSQSVLFVGLREHVVKIPLKRCQFYRTRSTCIGAQDPYCGWDVVMKKCTSLEESLSMTQWEQSISACPTRNLTVDGHFGVWSPWTPCTHTDGSAVGSCLCRTRSCDSPAPQCGGWQCEGPGMEIANCSRNGGWTPWTSWSPCSTTCGIGFQVRQRSCSNPTPRHGGRVCVGQNREERYCNEHLLCPPHMFWTGWGPWERCTAQCGGGIQARRRICENGPDCAGCNVEYQSCNTNPCPELKKTTPWTPWTPVNISDNGGHYEQRFRYTCKARLADPNLLEVGRQRIEMRYCSSDGTSGCSTDGLSGDFLRAGRYSAHTVNGAWSAWTSWSQCSRDCSRGIRNRKRVCNNPEPKYGGMPCLGPSLEYQECNILPCPVDGVWSCWSPWTKCSATCGGGHYMRTRSCSNPAPAYGGDICLGLHTEEALCNTQPCPESWSEWSDWSECEASGVQVRARQCILLFPMGSQCSGNTTESRPCVFDS
notes: Semaphorin-5A, human, UniProtKB Q13591, residues 23E-944S (sema, PSI and TSR1-7 domains); Glycosylated (11 predicted N-glycan sites); also called full-length ectodomain human Sema5A; Sema5A ectodomain; source: HEK293T, transfected, conditioned medium; purified (Ni-NTA, SEC); not shown: His6, C-terminal, kept

What was measured:
[1] = target: the molecule itself; experiment: crystal structure; Sema5A_(TSR3-4), four crystal forms (apo, nitrate, sulfate, sucrose octasulfate), sitting drop at 20 °C, 1.56-2.72 Å
[2] = target: the molecule itself; experiment: mass photometry; Sema5A_(sema-TSR1-7) alone, 100 nM (half of it at measurement), 100 mM NaCl

Protein | stoichiometry N [1] | stoichiometry N [2]
B1 | 2 | –
B2 | – | 2

Reference: publication PMC10978931, “Structure and function of Semaphorin-5A glycosaminoglycan interactions” (Nature Communications, 2024)
